Experiments:
[1] = molecular target: T1, human Ang2 polypeptide (R&D systems; Accession #O15123; SEQ ID NO: 172) (human, UniProt O15123 19-496); experiment: ELISA, antigen coated, scFv, anti-HA-HRP; 50% binding concentration (Kd)
T1 construct: Bought protein; also called hAng2; human Ang2 protein
T1 sequence: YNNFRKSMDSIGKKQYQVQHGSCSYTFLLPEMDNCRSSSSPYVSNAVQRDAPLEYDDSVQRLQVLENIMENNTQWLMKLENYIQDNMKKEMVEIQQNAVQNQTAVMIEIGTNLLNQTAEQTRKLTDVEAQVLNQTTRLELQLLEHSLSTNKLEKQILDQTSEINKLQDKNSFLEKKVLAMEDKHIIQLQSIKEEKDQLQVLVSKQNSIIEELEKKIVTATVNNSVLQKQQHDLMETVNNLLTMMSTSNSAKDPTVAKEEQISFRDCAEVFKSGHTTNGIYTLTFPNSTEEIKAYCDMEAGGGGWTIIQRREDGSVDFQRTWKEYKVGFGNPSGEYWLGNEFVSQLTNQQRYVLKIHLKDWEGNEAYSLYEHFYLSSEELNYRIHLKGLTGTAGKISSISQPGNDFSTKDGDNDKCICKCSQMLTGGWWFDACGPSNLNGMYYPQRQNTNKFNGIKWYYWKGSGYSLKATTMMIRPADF
Experimental: (§1) To measure binding of the antibodies prepared above with each antigen, ELISA was performed. A 96-well MaxiSorp™ flat-bottom plate (Nunc) was coated with 5˜20 μg/ml of human Ang2 and mouse Ang2 (Accession # NP_{—}031452) (both, R&D Systems). After that, the plate was washed five times with 0.05% (v/v) Tween-20-containing PBS and then blocked with 1% (v/v) BSA-containing PBS at a room temperature for 2 hours. The anti-Ang2 antibodies in their scFv forms prepared above were added to each well of the plate which was then allowed to react at a room temperature for 2 hours.
(§2) Thereafter, the plate was washed five times with 0.05% Tween-20-containing PBS and then, an HRP-conjugated anti-HA (HA-probe Antibody (F-7) HRP conjugated) antibody (Santacruz) diluted in 1% (v/v) BSA-containing PBS at 1:1,000 ratio (v/v) was added in the amount of 50 μl to each well to react at a room temperature for 1 hour, followed by washing five times with 0.1% (v/v) Tween-20-containing PBS. Finally, 100 μl of TMB substrate (cell signal) was added to each well of the plate to induce color development at a room temperature for 3 min and then, the reaction was ceased by the addition of 50 μl of 5N H₂SO₄ solution and OD450 values were measured on a plate reader (Molecular Devices).

[2] = molecular target: T2, mouse Ang2 (Accession # NP-031452) (R&D Systems) (mouse, UniProt O35608 19-496, limits assumed); experiment: as above
T2 construct: Bought protein; also called mAng2
T2 sequence (looked up): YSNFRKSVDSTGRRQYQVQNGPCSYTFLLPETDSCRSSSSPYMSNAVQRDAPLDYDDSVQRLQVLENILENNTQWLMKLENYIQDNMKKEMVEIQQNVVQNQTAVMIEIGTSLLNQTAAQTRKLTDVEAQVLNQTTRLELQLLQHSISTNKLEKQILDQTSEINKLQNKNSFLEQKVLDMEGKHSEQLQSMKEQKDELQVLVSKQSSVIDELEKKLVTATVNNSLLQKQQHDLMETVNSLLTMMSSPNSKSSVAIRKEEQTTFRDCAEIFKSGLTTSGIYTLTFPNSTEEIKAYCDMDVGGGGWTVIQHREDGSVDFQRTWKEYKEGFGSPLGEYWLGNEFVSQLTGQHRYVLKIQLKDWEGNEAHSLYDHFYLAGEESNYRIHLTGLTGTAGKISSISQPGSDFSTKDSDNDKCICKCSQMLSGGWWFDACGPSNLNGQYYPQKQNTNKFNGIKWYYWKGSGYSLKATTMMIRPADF
Experimental: as §1, §2

| Binder | Kd [1] | Kd [2] |
| --- | --- | --- |
| SAIT-ANG-2-AB-2-E6 (scFv form) (scFv, V domains shown, scFv from a phage display library, partly purified from E. coli periplasm on Ni-NTA and detected with anti-HA) VH: EVQLLESGGGLVQTGGSLRLSCAASGFTFSDYAMSWVRQAPGKGLEWVSAIYPDSGNKYYADSVKGRFTISRDNSKNTLYLQMNSLRAEDTAVYYCARHSSDPKVKSGYYDDGMDVWGQGTLVAVSS VL: QSVLTQPPSASGTPGQRVTISCSGSSSNIGNNAVNWYQQLPGTAPKLLIYADSNRPSGVPDRFSGSKSGTSASLAISGLRSEDEADYYCGSWDYSLSGYVFGGGTKLTVLG | 9.3 nM | 5.1 nM |
| SAIT-ANG-2-AB-7-C9 (scFv form) (scFv, V domains shown, scFv from a phage display library) VH: EVQLLESGGGLVQPGGSLRLSCAASGFTFSNYAMSWVRQAPGKGLEWVSAISSGGGNIYYADSVKGRFTISRDNSKNTLYLQMNSLRAEDTAVYYCAKSGIQPSPPSMSSAYAMDVWGQGTLVTVSS VL: QSVLTQPPSASGTPGQRVTISCSGSSSNIGNNDVYWYQQLPGTAPKLLIYANSHRPSGVPDRFSGSKSGTSASLAISGLRSEDEADYYCGTWDYSLSGYVFGGGTKLTVLG | 3.8 nM | 8.7 nM |
| SAIT-ANG-2-AB-3-D3 (scFv form) (scFv, V domains shown, scFv from a phage display library) VH: EVQLLESGGGLVQPGGSLRLSCAASGFTFSDYDMSWVRQAPGKGLEWVSGISSDDGNTYYADSVKGRFTISRDNSKNTLYLQMNSLRAEDTAVYYCARPTIDKYTLRGYYSYGMDVWGQGTLVTVSS VL: QSVLTQPPSASGTPGQRVTISCTGSSSNIGSNYVSWYQQLPGTAPKLLIYSDNKRPSGVPDRFSGSKSGTSASLAISGLRSEDEADYYCGTWDDSLNGYVFGGGTKLTVLG | 4.3 nM | 37.8 nM |
| SAIT-ANG-2-AB-4-C11 (scFv form) (scFv, V domains shown, scFv from a phage display library) VH: EVQLLESGGGLVQPGGSLRLSCAASGFTFSDYAMSWVRQAPGKGLEWVSSIYPDDGNTYYADSVKGRFTISRDNSKNTLYLQMNSLRAEDTAVYYCARHTSHHTSIDGYYYYGMDGWGQGTLVTVSS VL: QSVLTQPPSASGTPGQRVTISCTGSSSNIGNNDVSWYQQLPGTAPKLLIYSDSKRPSGVPDRFSGSKSGTSASLAISGLRSEDEADYYCGSWDYSLSGYVFGGGTKLTVLG | 4.9 nM | 28.6 nM |
| SAIT-ANG-2-AB-4-F5 (scFv form) (scFv, V domains shown, scFv from a phage display library) VH: EVQLLESGGGLVQPGGSLRLSCAASGFTFSDYDMSWVRQAPGKGLEWVSSISHGDSNKYYADSVKGRFTISRDNSKNTLYLQMNSLRAEDTAVYYCAKSSGIQESPPTYYYYGMDVWGQGTLVTVSS VL: QSVLTQPPSASGTPGQRVTISCSGSSSNIGSNAVNWYQQLPGTAPKLLIYADSNRPSGVPDRFSGSKSGTSASLAISGLRSEDEADYYCGSWDYSLSGYVFGGGTKLTVLG | 12.1 nM | 23.8 nM |
| SAIT-ANG-2-AB-4-F11 (scFv form) (scFv, V domains shown, scFv from a phage display library) VH: EVQLLESGGGLVQTGGSLRLSCAASGFTFSDYAMSWVRQAPGKGLEWVSSIYPDDGNTYYADSVKGRFTISRDNSKNTLYLQMNSLRAEDTAVYYCAKHPVRLNLHPMYYYYGMDVWGQGTLVTVSS VL: QSVLTQPPSASGTPGQRVTISCTGSSSNIGNNAVSWYQQLPGTAPKLLIYSDSQRPSGVPDRFSGSKSGTSASLAISGLRSEDEADYYCATWDYSLSAYVFGGGTKLTVLG | 3 nM | 20.7 nM |
| SAIT-ANG-2-AB-8-A5 (scFv form) (scFv, V domains shown, scFv from a phage display library) VH: EVQLLESGGGLVQPGGSLRLSCAASGFTFSDYYMSWVRQAPGKGLEWVSGIYPSGGSTYYADSVKGRFTISRDNSKNTLYLQMNSLRAEDTAVYYCARDPSTLTYAGFDYWGQGTLVTVSS VL: QSVLTQPPSASGTPGQRVTISCSGSSSNIGNNYVTWYQQLPGTAPKLLIYADSHRPSGVPDRFSGSKSGTSASLAISGLRSEDEADYYCATWDYSLSGYVFGGGTKLTVLG | 5.3 nM | 11.7 nM |

From patent US20150152192A1 (SAMSUNG ELECTRONICS, published 2015)
